Assay results from publication PMC10027671.

Legend:
Adnectin1-tFhuA [1] = experiment: single-channel electrical recording (nanopore, resistive pulse); single Adnectin1-tFhuA sensor in a planar lipid bilayer, 20 nM EGFR cis, in the presence of 5% (v/v) fetal bovine serum; +20 mV; filtered at 500 Hz
Adnectin1-tFhuA [2] = experiment: single-channel electrical recording (nanopore, resistive pulse); single Adnectin1-tFhuA sensor in a planar lipid bilayer, EGFR added to the cis side; +20 mV; 300 mM KCl, 10 mM Tris-HCl, pH 8.0, no TCEP; 24 ± 1 °C; two-exponential capture durations (short- and long-lived)

tau off-1 at 20 nM EGFR with 5% FBS (Fig. 5k) (Adnectin1-tFhuA [1]): 0.036 s
tau off-2 (mean duration of long-lived blockades) with 5% FBS (Adnectin1-tFhuA [1]): 0.93 s
tau off-2 at 20 nM EGFR with 5% FBS (Fig. 5k) (Adnectin1-tFhuA [1]): 0.81 s
tau on (released duration) at 20 nM EGFR with 5% FBS (Fig. 5j) (Adnectin1-tFhuA [1]): 0.607 s
tau on-2 with 5% FBS (Adnectin1-tFhuA [1]): 1.7 s
tau off-1 at 20 nM EGFR, without FBS (Fig. 5i) (Adnectin1-tFhuA [2]): 0.044 s
tau off-2 at 20 nM EGFR, without FBS (Fig. 5i) (Adnectin1-tFhuA [2]): 0.982 s
tau on (released duration) at 10 nM EGFR (Adnectin1-tFhuA [2]): 0.78 s
tau on (released duration) at 20 nM EGFR (Adnectin1-tFhuA [2]): 0.42 s
tau on (released duration) at 20 nM EGFR, without FBS (Fig. 5h) (Adnectin1-tFhuA [2]): 0.4 s
tau on (released duration) at 40 nM EGFR (Adnectin1-tFhuA [2]): 0.25 s
Substance: ectodomain of epidermal growth factor receptor (EGFR) (from UniProt P00533 25-645) (domain or fragment)
